Assay results from patent US20210230295A1 (HANGZHOU SUMGEN BIOTECH, published 2021).

T1: CD19 (Beijing Yiqiao Shenzhou Biotechnology Co., Ltd.) (UniProt P15391 20-291)
T1 sequence (looked up): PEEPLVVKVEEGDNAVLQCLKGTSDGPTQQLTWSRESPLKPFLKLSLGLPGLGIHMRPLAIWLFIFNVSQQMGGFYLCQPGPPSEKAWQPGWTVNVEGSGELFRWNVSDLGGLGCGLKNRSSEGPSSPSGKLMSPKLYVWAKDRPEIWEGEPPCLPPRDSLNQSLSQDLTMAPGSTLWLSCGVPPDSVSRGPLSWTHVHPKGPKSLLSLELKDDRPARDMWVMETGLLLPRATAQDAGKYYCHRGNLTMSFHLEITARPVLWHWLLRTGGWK

T2: BCMA (ACRO Biosystems) (UniProt Q02223 1-54)
T2 sequence (looked up): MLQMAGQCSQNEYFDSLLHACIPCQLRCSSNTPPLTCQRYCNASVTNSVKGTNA

T3: CD38 (Beijing Yiqiao Shenzhou Biotechnology Co., Ltd.) (UniProt P28907 43-300)
T3 sequence (looked up): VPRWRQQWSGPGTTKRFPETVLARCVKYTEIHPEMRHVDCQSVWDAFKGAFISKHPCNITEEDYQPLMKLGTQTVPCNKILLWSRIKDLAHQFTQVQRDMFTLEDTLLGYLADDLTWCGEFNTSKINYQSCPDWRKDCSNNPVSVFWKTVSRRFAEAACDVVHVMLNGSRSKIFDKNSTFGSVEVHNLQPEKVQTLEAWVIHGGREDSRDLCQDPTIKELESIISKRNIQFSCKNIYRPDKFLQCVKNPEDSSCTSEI

T4: Gas6 (R&D) (UniProt Q14393 49-678, limits assumed)
T4 sequence (looked up): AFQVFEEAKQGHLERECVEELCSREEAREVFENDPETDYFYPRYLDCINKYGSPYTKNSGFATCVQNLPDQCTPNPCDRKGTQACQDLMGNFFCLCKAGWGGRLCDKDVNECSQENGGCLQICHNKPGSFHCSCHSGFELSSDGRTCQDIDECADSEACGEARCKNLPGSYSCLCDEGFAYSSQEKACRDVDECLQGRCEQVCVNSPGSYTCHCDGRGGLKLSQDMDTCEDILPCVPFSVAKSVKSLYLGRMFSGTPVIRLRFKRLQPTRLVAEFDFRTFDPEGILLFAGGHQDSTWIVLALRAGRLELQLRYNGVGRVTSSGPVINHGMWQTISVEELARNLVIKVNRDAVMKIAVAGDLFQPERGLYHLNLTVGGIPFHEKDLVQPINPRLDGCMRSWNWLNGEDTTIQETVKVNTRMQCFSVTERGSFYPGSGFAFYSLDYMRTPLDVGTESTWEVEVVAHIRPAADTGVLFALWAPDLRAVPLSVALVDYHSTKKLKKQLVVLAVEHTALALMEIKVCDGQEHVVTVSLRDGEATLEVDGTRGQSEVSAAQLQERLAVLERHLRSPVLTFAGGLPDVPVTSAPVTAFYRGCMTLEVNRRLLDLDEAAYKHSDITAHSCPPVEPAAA

T5: TROP2 (Beijing Yiqiao Shenzhou Biotechnology Co., Ltd.) (UniProt P09758 27-274)
T5 sequence (looked up): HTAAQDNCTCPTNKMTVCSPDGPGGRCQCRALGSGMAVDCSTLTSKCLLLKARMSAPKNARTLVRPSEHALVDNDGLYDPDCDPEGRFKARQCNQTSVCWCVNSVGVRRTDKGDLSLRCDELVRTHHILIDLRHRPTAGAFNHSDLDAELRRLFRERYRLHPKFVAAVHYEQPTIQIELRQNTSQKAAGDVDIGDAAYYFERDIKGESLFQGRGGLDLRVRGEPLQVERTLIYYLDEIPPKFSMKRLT

T6: AXL (Beijing Yiqiao Shenzhou Bio Technology Co., Ltd., 6xHis label, with a molecular weight of 65 Kda) (UniProt P30530 33-449)
T6 construct: Bought protein used as the mobile phase in BIACORE; not shown: 6xHis label
T6 sequence (looked up): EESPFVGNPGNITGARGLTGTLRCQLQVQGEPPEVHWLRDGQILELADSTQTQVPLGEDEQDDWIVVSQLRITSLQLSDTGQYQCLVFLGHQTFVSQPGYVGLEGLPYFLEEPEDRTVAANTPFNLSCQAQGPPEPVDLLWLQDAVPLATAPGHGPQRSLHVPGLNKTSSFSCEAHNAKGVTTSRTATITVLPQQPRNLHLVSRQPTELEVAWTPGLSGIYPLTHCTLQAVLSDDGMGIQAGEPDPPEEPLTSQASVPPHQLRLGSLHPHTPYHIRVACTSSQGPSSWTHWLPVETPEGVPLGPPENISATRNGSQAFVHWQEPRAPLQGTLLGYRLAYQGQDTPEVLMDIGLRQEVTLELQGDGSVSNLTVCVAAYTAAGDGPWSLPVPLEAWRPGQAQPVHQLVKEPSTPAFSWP

T7: AXL on the surface of human tumor cells (human, UniProt P30530 26-894)
T7 sequence: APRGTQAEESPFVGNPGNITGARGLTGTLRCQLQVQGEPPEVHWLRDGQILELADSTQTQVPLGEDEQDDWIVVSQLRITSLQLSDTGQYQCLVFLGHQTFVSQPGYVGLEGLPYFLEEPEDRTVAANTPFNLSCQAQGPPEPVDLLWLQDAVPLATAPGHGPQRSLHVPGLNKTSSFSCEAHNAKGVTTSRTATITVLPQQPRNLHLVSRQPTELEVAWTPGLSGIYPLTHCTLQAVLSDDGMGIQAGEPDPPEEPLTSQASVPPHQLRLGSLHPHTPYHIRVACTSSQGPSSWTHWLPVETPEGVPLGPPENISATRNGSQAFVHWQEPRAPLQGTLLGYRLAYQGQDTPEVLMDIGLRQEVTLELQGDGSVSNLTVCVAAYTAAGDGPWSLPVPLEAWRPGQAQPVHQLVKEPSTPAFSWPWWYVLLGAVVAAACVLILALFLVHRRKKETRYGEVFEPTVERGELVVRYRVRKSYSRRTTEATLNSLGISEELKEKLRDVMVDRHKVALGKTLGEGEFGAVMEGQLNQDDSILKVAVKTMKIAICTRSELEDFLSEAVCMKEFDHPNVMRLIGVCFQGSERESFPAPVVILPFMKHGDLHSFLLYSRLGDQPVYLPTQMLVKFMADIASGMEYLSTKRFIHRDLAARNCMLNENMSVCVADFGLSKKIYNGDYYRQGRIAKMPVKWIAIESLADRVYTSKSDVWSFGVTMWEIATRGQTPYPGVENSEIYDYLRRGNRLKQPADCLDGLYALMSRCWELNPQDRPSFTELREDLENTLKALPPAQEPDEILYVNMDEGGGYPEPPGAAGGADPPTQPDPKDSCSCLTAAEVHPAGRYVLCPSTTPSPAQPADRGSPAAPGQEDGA


Key:
[1] = target: T8, BSA (BOVOGEN) (UniProt P02769 25-607); assay: ELISA, protein coated at 1 ug/ml, OD 450 nm
T8 construct: Specificity control
Procedure: (§1) Milk (Beijing Bomed Biotechnology Co., Ltd.), BSA (BOVOGEN), CD19 (Beijing Yiqiao Shenzhou Biotechnology Co., Ltd.), TROP2 (Beijing Yiqiao Shenzhou Biotechnology Co., Ltd.), BCMA (ACRO Biosystems), CD47 (Beijing Magpel Biotechnology Co., Ltd.), CD38 (Beijing Yiqiao Shenzhou Biotechnology Co., Ltd.), Gas6 (R&D) and each protein and AXL (ACRO Biosystems) were coated with ELISA plates at 1 μg/ml at 4° C. overnight, respectively. After washing with PBST, 10% fetal bovine serum was added and blocked at 37° C. for 1 hour. The C6G12 antibody prepared in Example 3 was added and reacted at 37° C. for 1 hour. After washing with PBST, horseradish peroxidase labeled goat anti-human IgG secondary antibody (GOAT Anti human (HRP), Thermo Fisher Scientific, #31412) was added and reacted at room temperature for 30 minutes. The plates were repeatedly washed with PBST for 5 times, and dried the residual droplets as possible on absorbent paper. […] (eBioscience, #85-00-420) was added and stood at room temperature (20±5 ) in the dark for 1.5 minutes. […] stop solution was added to each well to stop the substrate reaction. The OD value was read with a microplate reader at 450 nm. The binding abilities of antibodies and proteins were analyzed.

[2] = target: T1, CD19 (Beijing Yiqiao Shenzhou …); assay: ELISA, protein coated at 1 ug/ml, OD 450 nm
Procedure: as §1

[3] = target: T2, BCMA (ACRO Biosystems); assay: ELISA, protein coated at 1 ug/ml, OD 450 nm
Procedure: as §1

[4] = target: T3, CD38 (Beijing Yiqiao Shenzhou …); assay: ELISA, protein coated at 1 ug/ml, OD 450 nm
Procedure: as §1

[5] = target: CD47 (Beijing Magpel Biotechnology Co., Ltd.) (UniProt Q08722 19-139, limits assumed); assay: ELISA, protein coated at 1 ug/ml, OD 450 nm
Procedure: as §1

[6] = target: T4, Gas6 (R&D); assay: ELISA, protein coated at 1 ug/ml, OD 450 nm
Procedure: as §1

[7] = target: T5, TROP2 (Beijing Yiqiao Shenzhou …); assay: ELISA, protein coated at 1 ug/ml, OD 450 nm
Procedure: as §1

[8] = target: T9, AXL-Fc (fusion protein of human AXL protein extracellular domain-human IgG1 Fc) (human); assay: ELISA, AXL-Fc coated at 1 ug/ml, anti-human Fab-HRP detection
T9 construct: Expressed in CHO-K1 cells
Procedure: The AXL-Fc prepared in Example 1 was coated on the ELISA plate at 1 μg/ml at 4° C. overnight. After washing with PBST, 10% fetal bovine serum was added and blocked at 37° C. for 1 hour. Different concentrations of the C6G12 antibody prepared in Example 3 were added and reacted at 37° C. for 1 hour. After washing with PBST, horseradish peroxidase-labeled goat anti-human Fab secondary antibody (Goat Anti-human IgG(Fab′)2 (HRP), Abcam) was added and reacted at 37° C. for 30 minutes. The plate was repeatedly washed with PBST for 5 times, and dried to remove residual droplets as possible by absorbent paper. 100 μl of TMB (eBioscience) was added to each well, and stood at room temperature (20±5° C.) in the dark for 1.5 minutes. 100 μl of 2N H₂SO₄ stop solution was added to each well to stop the substrate reaction. The OD value was read with a microplate reader at 450 nm. The binding ability of the C6G12 antibody to AXL-Fc was analyzed.

[9] = target: T6, AXL (Beijing Yiqiao Shenzhou Bio …); assay: SPR (BIACORE), C6G12 captured by anti-human IgG-Fc antibody, AXL-His as mobile phase
Procedure: The antibody affinity was analyzed by BIACORE biomacromolecule interaction analyzer (GE Company). The anti-human IgG-Fc antibody (purchased from Abcam) was coupled to the chip, and used to capture the C6G12 antibody with an antibody concentration set as 0.5 μg/mL and an injection time of 60 seconds. AXL (Beijing Yiqiao Shenzhou Bio Technology Co., Ltd., 6×His label, with a molecular weight of 65 Kda) was taken as the mobile phase, with 6 concentration gradients (1, 0.4, 0.16, 0.064, 0.0256, 0.01024 μg/mL), a binding time of 180 seconds, and a dissociation time of 1200 seconds.

[10] = target: T7, AXL on the surface of human tumor cells; assay: cell-based or functional assay
[11] = target: T9, AXL-Fc (fusion protein of human AXL …); assay: ELISA, AXL-Fc coated at 1 ug/ml, anti-mouse IgG-HRP detection
Procedure: The AXL-Fc prepared in Example 1 was coated on the ELISA plate at 1 μg/ml at 4° C. overnight. After washing with PBST, 10% fetal bovine serum was added and blocked at 37° C. for 1 hour. Different concentrations of the 6G12 antibodies were added and reacted at 37° C. for 1 hour. After washing with PBST, horseradish peroxidase-labeled goat anti-mouse secondary antibody (Goat Anti-mouse IgGHRP, Abcam) was added and reacted at 37° C. for 30 minutes. The plate was repeatedly washed with PBST for 5 times, and dried to remove residual droplets as possible by absorbent paper. 100 μl of TMB (eBioscience) was added into each well, and stood at room temperature (20±5 ) in the dark for 1.5 minutes. 100 μl of 2N H₂SO₄ stop solution was added to each well to stop the substrate reaction. The OD value was read with a microplate reader at 450 nm. The binding ability of the antibody to AXL-Fc was analyzed.

Sequence of CD47 (Beijing Magpel Biotechnology Co., Ltd.) (Q08722 19-139 limits assumed): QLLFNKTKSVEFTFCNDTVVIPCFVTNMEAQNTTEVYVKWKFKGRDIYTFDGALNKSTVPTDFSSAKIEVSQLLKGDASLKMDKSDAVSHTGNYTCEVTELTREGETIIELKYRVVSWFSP
T8 sequence (P02769 25-607 limits assumed): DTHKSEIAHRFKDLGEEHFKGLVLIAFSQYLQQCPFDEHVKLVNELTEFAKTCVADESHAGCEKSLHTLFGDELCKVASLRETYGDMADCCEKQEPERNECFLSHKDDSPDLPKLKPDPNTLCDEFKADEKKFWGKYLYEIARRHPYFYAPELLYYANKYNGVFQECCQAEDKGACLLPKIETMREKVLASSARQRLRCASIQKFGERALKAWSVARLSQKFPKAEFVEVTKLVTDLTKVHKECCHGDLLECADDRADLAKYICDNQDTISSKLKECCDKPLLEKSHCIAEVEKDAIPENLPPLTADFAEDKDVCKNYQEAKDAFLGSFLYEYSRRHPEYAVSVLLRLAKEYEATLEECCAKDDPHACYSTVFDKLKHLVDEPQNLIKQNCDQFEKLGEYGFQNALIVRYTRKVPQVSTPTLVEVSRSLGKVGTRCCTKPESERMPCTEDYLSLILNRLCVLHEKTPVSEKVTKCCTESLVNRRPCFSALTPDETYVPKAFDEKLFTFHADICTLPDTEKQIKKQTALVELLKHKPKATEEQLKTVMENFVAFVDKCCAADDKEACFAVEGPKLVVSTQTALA

Row | Binder | binding result [1] | binding result [2] | binding result [3] | binding result [4] | binding result [5] | binding result [6] | binding result [7] | EC50 [8] [µg/mL] | Kd [9] [nM] | koff [9] [s⁻¹] | kon [9] [M⁻¹ s⁻¹] | internalization efficiency EC50 on human breast cancer MDA-MB-231 cells (flow cytometry, surface MFI at 4 C against 37 C) [10] [ng/mL] | internalization efficiency EC50 on human non-small cell lung cancer A549 cells (flow cytometry, surface MFI at 4 C against 37 C) [10] [ng/mL] | internalization efficiency EC50 on human pancreatic cancer MIA PaCa-2 cells (flow cytometry, surface MFI at 4 C against 37 C) [10] [ng/mL] | internalization efficiency EC50 on renal clear cell adenocarcinoma 786-O cells (flow cytometry, surface MFI at 4 C against 37 C) [10] [ng/mL] | EC50 [11] [µg/mL]
1 | C6G12 antibody (Chimeric 6G12) (antibody, human IgG1, kappa, V domains shown, 6G12 variable regions with a human IgG1 constant region, expressed in CHO-S cells and purified by Protein A; also called chimeric antibody) VH: QVQLKQSGPGLVKPSQSLSLTCSVTGFSISSGYYWNWIRQFPGNKLEWMGYRSYDGSNNYNPSLKNRISITRDTSKNQFFLKLNSVTTEDTATYYCARGWLLHYTMDYWGQGTSVTVSS VL: ELVMTQSPFSNAVTLGTSASISCRSSRSLLHSNGFTYLYWYLQKPGQSPQLLIYQMSNLASGVPDRFSSSGSGTDFTLRISRVEAEDVGVYYCGQNLELPLTFGAGTKLELKR | no binding | no binding | no binding | no binding | no binding | no binding | no binding | 0.0194 | 0.154 | 0.000402 | 2.61e+06 | 0.89 | 0.61 | 1.3 | 1.5 | 
2 | 6G12 antibody (antibody, V domains shown, also called monoclonal antibody 6G12) VH: QVQLKQSGPGLVKPSQSLSLTCSVTGFSISSGYYWNWIRQFPGNKLEWMGYRSYDGSNNYNPSLKNRISITRDTSKNQFFLKLNSVTTEDTATYYCARGWLLHYTMDYWGQGTSVTVSS VL: ELVMTQSPFSNAVTLGTSASISCRSSRSLLHSNGFTYLYWYLQKPGQSPQLLIYQMSNLASGVPDRFSSSGSGTDFTLRISRVEAEDVGVYYCGQNLELPLTFGAGTKLELK |  |  |  |  |  |  |  |  |  |  |  |  |  |  |  | 0.669
